PMC9416875, “Structural basis for non-canonical integrin engagement by Bordetella adenylate cyclase toxin” (Cell reports, 2022)

Biological target: RTX751 (Bordetella pertussis adenylate cyclase toxin, ACT, residues 751-1,706) (Bordetella pertussis, UniProt P0DKX7)
Assay: […], room temperature 20 min; […]; 20 mM Tris pH 7.5, 150 mM NaCl, 1 mM CaCl2, 1 mM MgCl2; […]
Settings: both partners purified

B1: M1F5 Fab (anti-ACT RTX domain antibody M1F5) (Fab, V domains shown)
VH: QVQLKQSGPELVKPGASVRMSCKGSGYSFTFHNIHWVKQRPGQGLEWIGWIYPGDGNTKYNEKFKGKTTLTVDKSSNTAYMLLSSLTSEDSAIYFCAYGNYYFDQWGQGTTLTVSS
VL: IQMMQSTSSLSASLGDRVTISCSASQGITNYLNWYQQKPDGTVKLLIYYTSSLHSGVPSRFSGSGSGTDYSLTISNLEPEDIATYYCQQYSNLPWTFGGGTKLEIK
notes: also called M1F5 antibody; M1F5 IgG
  stoichiometry N: 1
